Measurements as given in patent US20240376185A1 (SMIVET B V, published 2024).
Like-named read-outs stand apart in the source and are kept apart here.

B1: SVT15-3FW4M-GS3-SVT06-GS2-SVG13M5-H6 (bispecific antibody)
chain: QVQLQESGGGLVQTGGSLRLSCRASGRAFANYHFGWFRQAPGKDREFVASISWKGGSTYYANFALGRFTSSVDRAESSVYLQMSGLTPEDTATYYCAAHDGGDWNYHTGMDYWGQGTQVTVSSGGGGSGGGGSGGGGSQVQLQESGGGSVQAGGSLRLSCTASELSYDDYTIAWFRRAAGEGRVEDGEGVASITKSYDRAYDNKINYGHSVKGRFTISRDNAKNTVYLQMTDLLPSDTAVYYCALDITPPGGVGASLTEGFLFDYWGQGTQVTVSSGGGGSGGGSEVQLVESGGGLVQPGGSLRLSCEASGFTFDDYGMSWVRQAPGKGLEWVSSLTPNGGSTYYADSVKGRFTISRDNAKNTLYLQMNSLKPEDTALYYCAKNSYYGAMDYRGQGTQVTVSSHHHHHH
B2: SVT03L (VHH)
VHH: QVQLQQSGGGSVQTGDSLTLSCTASGGSLNSYFVGWFRQSGGKEREFVSVIARTGRSTSYADSVKGRFTISRDNAANTVFLTMNNLRPDDTAIYYCAAVGRPGVLHLTQSYDYWGQGTQVTVSS
B3: SVT03L (VHH)
VHH: B2 VHH
B4: SVT02L (VHH)
VHH: QVQLQQSGGGSVQAGGSLRLSCVGPQRTFSTYGMGWFRQAPGKEREFVAGINYKGDTTYYADSVKGRFTISRDNAKNTLYLQMDSLKPEDRAVYQCARKGGLGGDYRDAGQYRYWGQGTQVTVSS
B5: SVT06-GS3-SVT15-3FW4M-GS2-SVG06M4-H6 (bispecific antibody)
chain: QVQLQESGGGSVQAGGSLRLSCTASELSYDDYTIAWFRRAAGEGRVEDGEGVASITKSYDRAYDNKINYGHSVKGRFTISRDNAKNTVYLQMTDLLPSDTAVYYCALDITPPGGVGASLTEGFLFDYWGQGTQVTVSSGGGGSGGGGSGGGGSQVQLQESGGGLVQTGGSLRLSCRASGRAFANYHFGWFRQAPGKDREFVASISWKGGSTYYANFALGRFTSSVDRAESSVYLQMSGLTPEDTATYYCAAHDGGDWNYHTGMDYWGQGTQVTVSSGGGGSGGGSEVQLVESGGALVQPGGSLRLSCAASGFPFSAYDMTWVRQAPGQGLEWVSTIHKSGGITTYADSVKGRFTISRDNAKNTLYLQMNNLESEDTAVYYCAKALRAHNSDYVGRNALGSWGQGTQVTVSSHHHHHH

Tests used:
human serum albumin = target: T1, human serum albumin (human, UniProt P02768 25-609); experiment: BLI, biotinylated albumin on SA sensors
T1 construct: mature; also called human Alb

horse serum albumin = target: T2, horse serum albumin (horse, UniProt P35747 25-607); experiment: BLI, biotinylated albumin on SA sensors
T2 construct: mature; also called horse Alb; Equine albumin
T2 sequence (P35747 25-607): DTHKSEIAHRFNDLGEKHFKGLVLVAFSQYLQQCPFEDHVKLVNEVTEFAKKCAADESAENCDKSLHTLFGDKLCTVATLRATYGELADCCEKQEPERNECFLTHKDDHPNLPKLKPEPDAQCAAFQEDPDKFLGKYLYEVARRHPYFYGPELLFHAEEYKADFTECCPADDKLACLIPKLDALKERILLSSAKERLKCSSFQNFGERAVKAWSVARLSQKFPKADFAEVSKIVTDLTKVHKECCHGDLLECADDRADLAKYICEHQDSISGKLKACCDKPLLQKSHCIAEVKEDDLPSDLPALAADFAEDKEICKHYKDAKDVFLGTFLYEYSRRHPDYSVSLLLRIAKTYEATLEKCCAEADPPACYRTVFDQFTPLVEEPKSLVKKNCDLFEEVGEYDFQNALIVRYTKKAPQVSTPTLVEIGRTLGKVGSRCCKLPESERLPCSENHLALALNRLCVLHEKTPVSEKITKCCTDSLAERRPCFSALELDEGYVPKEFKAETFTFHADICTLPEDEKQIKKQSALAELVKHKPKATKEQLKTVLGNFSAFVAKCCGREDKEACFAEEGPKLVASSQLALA

dog serum albumin = target: T3, dog serum albumin (dog, UniProt P49822 25-608); experiment: BLI, biotinylated SDA on SA sensors
T3 construct: mature; also called dog Alb; Canine albumin
T3 sequence (P49822 25-608): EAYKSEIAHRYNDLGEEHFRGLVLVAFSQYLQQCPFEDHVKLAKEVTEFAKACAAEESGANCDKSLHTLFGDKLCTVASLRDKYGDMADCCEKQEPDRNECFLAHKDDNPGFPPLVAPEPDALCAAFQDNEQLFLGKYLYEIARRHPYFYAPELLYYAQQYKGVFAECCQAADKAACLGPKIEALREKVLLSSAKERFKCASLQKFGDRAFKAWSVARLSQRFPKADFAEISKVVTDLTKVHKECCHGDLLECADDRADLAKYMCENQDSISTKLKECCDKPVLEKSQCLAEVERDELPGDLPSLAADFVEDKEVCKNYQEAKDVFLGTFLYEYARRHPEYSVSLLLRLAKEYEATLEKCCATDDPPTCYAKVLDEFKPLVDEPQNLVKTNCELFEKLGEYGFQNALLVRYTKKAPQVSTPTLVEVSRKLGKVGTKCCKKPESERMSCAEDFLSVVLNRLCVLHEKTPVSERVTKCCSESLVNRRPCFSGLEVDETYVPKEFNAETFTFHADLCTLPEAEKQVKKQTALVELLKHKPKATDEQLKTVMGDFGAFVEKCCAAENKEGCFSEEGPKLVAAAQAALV

[1] = target: T4, tetanus neurotoxin (TeNT), authentic tetanus holotoxin (Clostridium tetani, UniProt P04958 2-1315); experiment: BLI (Octet Red96): biotinylated TeNT on SA sensor, SDA as analyte
Target sequence in this assay (P04958 2-457 limits assumed, chain 1 of 2): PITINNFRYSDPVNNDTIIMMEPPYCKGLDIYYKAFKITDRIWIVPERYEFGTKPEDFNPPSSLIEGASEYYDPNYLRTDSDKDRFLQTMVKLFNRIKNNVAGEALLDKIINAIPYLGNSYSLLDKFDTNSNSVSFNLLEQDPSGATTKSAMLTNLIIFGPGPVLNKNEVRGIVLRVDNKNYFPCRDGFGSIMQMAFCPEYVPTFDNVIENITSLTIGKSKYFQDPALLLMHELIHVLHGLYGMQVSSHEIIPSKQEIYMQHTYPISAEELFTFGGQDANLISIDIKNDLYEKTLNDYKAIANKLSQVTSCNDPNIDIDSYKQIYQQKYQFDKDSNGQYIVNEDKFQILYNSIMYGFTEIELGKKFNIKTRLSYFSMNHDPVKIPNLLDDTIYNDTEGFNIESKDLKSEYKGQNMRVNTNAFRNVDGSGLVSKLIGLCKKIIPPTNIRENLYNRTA
Target sequence in this assay (P04958 458-1315 limits assumed, chain 2 of 2): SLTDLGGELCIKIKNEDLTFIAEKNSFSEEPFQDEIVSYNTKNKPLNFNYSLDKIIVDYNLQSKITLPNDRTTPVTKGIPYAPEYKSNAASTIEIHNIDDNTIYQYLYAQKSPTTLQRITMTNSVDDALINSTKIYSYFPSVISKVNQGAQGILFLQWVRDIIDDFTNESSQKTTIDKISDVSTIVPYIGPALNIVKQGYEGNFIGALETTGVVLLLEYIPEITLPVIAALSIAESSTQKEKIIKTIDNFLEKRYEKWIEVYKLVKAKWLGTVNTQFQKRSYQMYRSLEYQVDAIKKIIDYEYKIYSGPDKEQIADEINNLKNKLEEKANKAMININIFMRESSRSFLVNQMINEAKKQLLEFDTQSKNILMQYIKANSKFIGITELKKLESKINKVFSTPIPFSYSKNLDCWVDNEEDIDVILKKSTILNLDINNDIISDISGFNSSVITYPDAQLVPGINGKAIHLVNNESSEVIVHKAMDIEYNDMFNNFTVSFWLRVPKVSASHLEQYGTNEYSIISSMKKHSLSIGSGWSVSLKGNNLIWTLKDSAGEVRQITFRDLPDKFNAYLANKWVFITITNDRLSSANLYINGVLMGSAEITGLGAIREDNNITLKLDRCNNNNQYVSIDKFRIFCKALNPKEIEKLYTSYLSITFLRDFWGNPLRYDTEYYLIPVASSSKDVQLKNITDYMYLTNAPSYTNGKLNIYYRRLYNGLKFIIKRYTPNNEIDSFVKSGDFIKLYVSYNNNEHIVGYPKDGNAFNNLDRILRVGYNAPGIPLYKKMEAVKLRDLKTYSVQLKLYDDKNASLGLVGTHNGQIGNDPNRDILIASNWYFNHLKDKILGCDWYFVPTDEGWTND

[2] = target: T4, tetanus neurotoxin (TeNT), authentic …; experiment: BLI (Octet Red96); estimate of the footnote with kdis set to 1.0E-07
Target sequence in this assay (P04958 2-457 limits assumed): as the sequence (P04958 2-457 limits assumed, chain 1 of 2) above

[3] = target: T4, tetanus neurotoxin (TeNT), authentic …; experiment: cell-based or functional assay
Target sequence in this assay (P04958 2-457 limits assumed): as the sequence (P04958 2-457 limits assumed, chain 1 of 2) above

[4] = target: T4, tetanus neurotoxin (TeNT), authentic …
[5] = target: T5, tetanus neurotoxin (TeNT), authentic tetanus holotoxin (Clostridium tetani, UniProt P04958 2-1315); experiment: competition ELISA on TeNT, binder biotinylated; competitor SVT34L
Target sequence in this assay (P04958 2-457 limits assumed, chain 1 of 2): as above
Target sequence in this assay (P04958 458-1315 limits assumed, chain 2 of 2): as the sequence (P04958 458-1315 limits assumed, chain 2 of 2) above

[6] = target: T5, tetanus neurotoxin (TeNT), authentic …; experiment: ELISA, directly coated TeNT, unlabelled binder
[7] = target: T5, tetanus neurotoxin (TeNT), authentic …; experiment: competition ELISA on TeNT, binder biotinylated; competitor mAb 11n185
Target sequence in this assay (P04958 2-457 limits assumed, chain 1 of 2): as the sequence (P04958 2-457 limits assumed, chain 1 of 2) above
Target sequence in this assay (P04958 458-1315 limits assumed, chain 2 of 2): as the sequence (P04958 458-1315 limits assumed, chain 2 of 2) above

[8] = target: T5, tetanus neurotoxin (TeNT), authentic …; experiment: competition ELISA on TeNT, binder biotinylated; competitor SVT08L
Target sequence in this assay (P04958 2-457 limits assumed, chain 1 of 2): as the sequence (P04958 2-457 limits assumed, chain 1 of 2) above
Target sequence in this assay (P04958 458-1315 limits assumed, chain 2 of 2): as the sequence (P04958 458-1315 limits assumed, chain 2 of 2) above

[9] = target: T5, tetanus neurotoxin (TeNT), authentic …; experiment: ELISA, TeNT captured with coated mAb 6E7
Target sequence in this assay (P04958 2-457 limits assumed, chain 1 of 2): as the sequence (P04958 2-457 limits assumed, chain 1 of 2) above
Target sequence in this assay (P04958 458-1315 limits assumed, chain 2 of 2): as the sequence (P04958 458-1315 limits assumed, chain 2 of 2) above

[10] = target: T5, tetanus neurotoxin (TeNT), authentic …; experiment: competition ELISA on TeNT, binder biotinylated; competitor SVT03L
Target sequence in this assay (P04958 2-457 limits assumed, chain 1 of 2): as the sequence (P04958 2-457 limits assumed, chain 1 of 2) above
Target sequence in this assay (P04958 458-1315 limits assumed, chain 2 of 2): as the sequence (P04958 458-1315 limits assumed, chain 2 of 2) above

[11] = target: T5, tetanus neurotoxin (TeNT), authentic …; experiment: competition ELISA on TeNT, binder biotinylated; competitor mAb 14F5
[12] = target: T6, recombinant tetanus toxin fragment C (rTTC) (Clostridium tetani, UniProt P04958 865-1315); experiment: ELISA, directly coated rTTC, unlabelled binder
T6 sequence: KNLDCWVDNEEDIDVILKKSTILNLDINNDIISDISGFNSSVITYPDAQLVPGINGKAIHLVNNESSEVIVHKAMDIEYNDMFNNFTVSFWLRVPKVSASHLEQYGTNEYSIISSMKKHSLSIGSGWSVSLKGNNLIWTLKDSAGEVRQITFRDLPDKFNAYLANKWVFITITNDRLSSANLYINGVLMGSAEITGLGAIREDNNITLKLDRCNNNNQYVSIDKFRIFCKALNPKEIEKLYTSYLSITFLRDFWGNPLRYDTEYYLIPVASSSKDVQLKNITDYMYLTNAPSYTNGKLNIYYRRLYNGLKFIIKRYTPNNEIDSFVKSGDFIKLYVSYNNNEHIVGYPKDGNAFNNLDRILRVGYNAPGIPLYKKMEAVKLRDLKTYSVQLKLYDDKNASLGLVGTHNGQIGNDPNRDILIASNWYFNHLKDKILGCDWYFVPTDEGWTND

[13] = target: T5, tetanus neurotoxin (TeNT), authentic …; experiment: ELISA, TeNT captured with cAb-TT2, biotinylated binder
[14] = target: T5, tetanus neurotoxin (TeNT), authentic …; experiment: competition ELISA on TeNT, binder biotinylated; competitor SVT02L
[15] = target: T6, recombinant tetanus toxin fragment C …; experiment: ELISA, directly coated rTTC
[16] = target: T5, tetanus neurotoxin (TeNT), authentic …; experiment: competition ELISA on TeNT, binder biotinylated; competitor SVT15L-3FW4M
[17] = target: T5, tetanus neurotoxin (TeNT), authentic …; experiment: competition ELISA on TeNT, binder biotinylated; competitor SVT06L
[18] = target: T5, tetanus neurotoxin (TeNT), authentic …; experiment: ELISA, directly coated TeNT
[19] = target: T5, tetanus neurotoxin (TeNT), authentic …; experiment: competition ELISA on TeNT, binder biotinylated; competitor mAb 6F57
[20] = target: T5, tetanus neurotoxin (TeNT), authentic …; experiment: competition ELISA on TeNT, binder biotinylated; competitor SVT16L
[21] = target: T5, tetanus neurotoxin (TeNT), authentic …; experiment: GT1b-TeNT inhibition ELISA, EC at A450 0.59
[22] = target: T5, tetanus neurotoxin (TeNT), authentic …; experiment: GT1b-TeNT inhibition ELISA, unlabelled binder
[23] = target: T5, tetanus neurotoxin (TeNT), authentic …; experiment: competition ELISA on TeNT, binder biotinylated; competitor SVT13L
[24] = target: T5, tetanus neurotoxin (TeNT), authentic …; experiment: ELISA, directly coated TeNT, biotinylated binder
[25] = target: T5, tetanus neurotoxin (TeNT), authentic …; experiment: ELISA, TeNT captured with cAb-TT2, unlabelled binder
[26] = target: T5, tetanus neurotoxin (TeNT), authentic …; experiment: competition ELISA on TeNT, binder biotinylated; competitor SVT22L
[27] = target: T5, tetanus neurotoxin (TeNT), authentic …; experiment: competition ELISA on TeNT, binder biotinylated; competitor mAb 6E7
[28] = target: T5, tetanus neurotoxin (TeNT), authentic …; experiment: competition ELISA on TeNT, binder biotinylated; competitor SVT15L
[29] = target: T6, recombinant tetanus toxin fragment C …; experiment: ELISA, rTTC captured with coated mAb 6E7
[30] = target: T4, tetanus neurotoxin (TeNT), authentic …; experiment: BLI (Octet Red96); avidity (bivalent for TeNT); format for this SDA not told
[31] = target: T4, tetanus neurotoxin (TeNT), authentic …; experiment: BLI (Octet Red96); estimate of the footnote with kdis set to 1.0E-07; avidity

Binder | Kd [4] | % inhibition of binding [5] | EC resulting in A450 0.2 [6] | maximal absorbance at 450 nm [6] | % inhibition of binding [7] | % inhibition of binding [8] | absorbance at 450 nm [9] | % inhibition of binding [10] | % inhibition of binding [11] | maximal absorbance at 450 nm [12] | EC resulting in A450 0.2 [13] | maximal absorbance at 450 nm [13] | % inhibition of binding [14] | binding result [15] | % inhibition of binding [16] | % inhibition of binding [17] | absorbance at 450 nm [18] | % inhibition of binding [19] | % inhibition of binding [20] | concentration giving A450 of 0.59 [21] | also measured
B1 | – | – | – | – | – | – | – | – | – | – | – | – | – | – | – | – | – | – | – | – | binding result (human serum albumin): no binding (tested: 100 nM); binding result (horse serum albumin): no binding (tested: 100 nM); binding result (dog serum albumin): no binding (tested: 500 nM)
B2 | < 1 pM | – | – | – | – | – | – | – | – | – | – | – | – | – | – | – | – | – | – | – | koff [1]: < 1e-07 s⁻¹; kon [1]: 5.65e+06 M⁻¹ s⁻¹; Kd [2]: ~0.0177 pM; Endpoint dilution factor [3]: < 1; SDA concentration providing full protection [3]: > 1000 nM
B3 | – | -4% | > 1000 ng/mL | 0.104 | -26% | 10% | 1.32 | 97% | -8% | 0.053 | 2.8 ng/mL | 0.493 | 10% | no binding (tested: A450 above 0.2 counts as binding) | 10% | 10% | 0.331 | 17% | 18% | > 1 µg/mL | minimal absorbance at 450 nm [22]: 0.903; % inhibition of binding [23]: 23%; EC resulting in A450 0.4 [24]: > 1000 ng/mL; maximal absorbance at 450 nm [24]: 0.233; EC resulting in A450 0.15 [25]: 1.9 ng/mL; maximal absorbance at 450 nm [25]: 0.304; % inhibition of binding [26]: 10%; % inhibition of binding [27]: -12%; % inhibition of binding [28]: 12%; absorbance at 450 nm [29]: 0.061
B4 | – | -16% | > 1000 ng/mL | 0.077 | 19% | 16% | 1.19 | 9% | 97% | 0.057 | 11 ng/mL | 0.53 | 96% | no binding (tested: A450 above 0.2 counts as binding) | 12% | 2% | 0.062 | 19% | 26% | > 1 µg/mL | minimal absorbance at 450 nm [22]: 0.576; % inhibition of binding [23]: 21%; EC resulting in A450 0.4 [24]: > 1000 ng/mL; maximal absorbance at 450 nm [24]: 0.191; EC resulting in A450 0.15 [25]: 36 ng/mL; maximal absorbance at 450 nm [25]: 0.196; % inhibition of binding [26]: 3%; % inhibition of binding [27]: 8%; % inhibition of binding [28]: 6%; absorbance at 450 nm [29]: 0.062
B5 | < 1 pM | – | – | – | – | – | – | – | – | – | – | – | – | – | – | – | – | – | – | – | koff [30]: < 1e-07 s⁻¹; kon [30]: 69100 M⁻¹ s⁻¹; Kd [31]: ~1.45 pM
